Results published in PMC9638898.

Test system: en-10C-R4 (engrailed homeodomain-ligase 10C-tetra-arginine) (artificial fusion)
Assay: fluorescence anisotropy
Conditions: 20 mM HEPES pH 7.5, 150 mM NaCl, 100 uM 2-mercaptoethanol, 120 uM ZnCl2, 100 ug/ml BSA, 24 C, 90 min

Question: “GUUCAGAGUUCUACAGUCACUAACGUUCGGGGAACCCAGGUGUUGGUCUUUGACGUAGAGUAUAAGA / TGGGTTCCCCGAACGT [RNA/DNA duplex (ligated product RNA + FAM-DNA splint #2)]” was tested. Which Kd did it give?
Answer: 460 nM
